Test results from the DeepSol protein solubility set.

Experiment: soluble on expression in E. coli; label from the status in PepcDB or PDB records

| Sequence | soluble on expression in E. coli |
| --- | --- |
| MTNLKAVIPVAGLGMHMLPATKAIPKEMLPIVDKPMIQYIVDEIVAAGIKEILLVTHASKNAVENHFDTSYELESLLEQRVKRQLLAEVQSICPPGVTIMNVRQGEPLGLGHSILCARPAIGDNPFVVVLPDVVIDDASADPLRYNLAAMIARFNETGRSQVLAKRMPGDLSEYSVIQTKEPLDREGKVSRIVEFIEKPDQPQTLDSDIMAVGRYVLSADIWPELERTQPGAWGRIQLTDAIAELAKKQSVDAMLMTGDSYDCGKKMGYMQAFVKYGLRNLKEGAKFRKGIEKLLSE | not soluble |
| MKTTLIISTYNRPEALSVCLDSVRFQTVMPDEVIVGDDGSTSETKDLIESFKKDFPVPLIHLWQEDKGFRLAMMRNKSVAAATGDYIIEIDGDIFLHNKFVEDHKRLAKPGHYLRGTRVNLGQKLTEEICKSKVNRRIYPWTIGIQNRAETAIHSTPVSNFFADRYKKNVSSGLGCNMSFWRSDFLAINGYDEFFEGWGKEDDDLTHRLQRKGCKKRSLRFAGIVYHLWHGHESMESDQKNAEYFRKNNEKNIVYCENGVSKYLKQELEHHHHHH | soluble |
| MKRVLVLGATGRTGNFVIKELSKYKSIQLIAGLRSQKDKERLPKINAAIETVVIDIADVCSLRKALTDSDIVVQAIRLRGDISENALIQLDQRIHQAFNPSRKTHLVTVGGAGALKLEANQRFWENEYFPRQTLPRGIAHARLRDYLEKSFFNHTWTYLIPPPVYVAEGARTGSYNRYSSAQKEDFFLSKSISYADFALAIGNAVMEEWQGVYLIAEKELEHHHHHH | not soluble |
| MFQQQNDWETRENAFAAFAMGPLTDFWRQREEAEFIGVGNIPVRFVRFRNDSNDRTIVICPGRIESYVKYAELAYDLFHLGFDIFIIDHRGQGRSGRMLSDPHRGHVDHFNDYVEDLAAFWQQEIEPGPWRKRYILAHSMGGAIATLFLQRHRVRCDAIALTAPMFGIVIRLPSFMVRHILDWAEGHQRIREDYAIGTGQWRALPFGMNALTHSRQRYQRNLRFYADEPQLRVGGPTWHWVREGILAGEQVLAGASDDTTPTLLIQAEEERVVDNRTHDRFCEIRAAAGYPCEGGKPLVIKGAYHEILFEKDAMRSVALNAIVEFFNKPNLSSGNRFA | not soluble |
| MPGINGAGPSNFFWQWRTDGEPVTEREHDSSRSASSANSPELPPPASPAESGRQRLLRSSALSRQTREWLEATPARVQGATPPAEARQSPEAQQAERIVQELVRGGADLNNVRTMLRNVMDNNAVAFSRVERDILLQHFPNMPMTGISSDSVLANELRQRLRQTVRQQRIQSSTPARLADSSSGSSQRSLIGRSTMLMTPGRSSSSSAAASRTSVDRHPQGLDLESARLASAARHNHSANQTNEALRRLTQEGVDMERLRTSLGRYIMSLEPLPPDLRRALESVGINPFIPEELSLVDHPVLNFSAALNRMLASRQTTTNSPELPPLASSAESGRRRLLRSPPLLSGQREWIEQSMRQEAEPQSSRLNRAVRLAVMPPQNENEDNVAYAIRLRRLNPGADVSRVVASFITDPAARQQVVNDIRAALDIAPQFSQLRTISKADAESEELGFRDAADHPDNATSCLFGEELSLSNPDQQVIGLAVNPTDKPQPYSQEVNKALTFMDMKKLAQYLADKPEHPLNRQRLDAKNIAKYAFKIVP | not soluble |
| MSSRGVTAPQGFVAAGATAGIKPSGNKDMALVVNQGPEFVGAAVFTRNRVVASPVKYTKKAVANGTLRAVLYNSGNANACNGVQGDKDVHEIVDYLASKLKVDPLDIAACSTGLIGEPLPVTMIKAGVDKLIPALGDNGGEAADSIMTTDTVAKETVVKCNGWTLGGMGKGVGMMAPSLATMLVCLTTDACVTQAQAHAALSKACDVTFNTLDIDGSTSTNDTVILLANGASGITPTESEFNDAVLQACADIADQLQADAEGVTKRVRITVTGTTTDSQALNAARTLGRDNLFKCAMFGSDPNWGRVLAAVGMADADMDPDNISVYFNDQPVCLQSGGTPEARQVDLSGIDIDVRVDLGTGGPGKAFVRTTDLSHQYVEINSAYSSLEHHHHHH | not soluble |
| MNVFAFSISGGGSERSYKETEKTSAMTTTHSTKLQPSQAILFKMREDAPPLNLTEEMPPPFPTKANYLIHPVRLEHHHHHH | not soluble |
| MEVSKANGTENNVEKFDAATQEATYLDEADVDAELEAMKKRLQEMEEEANRLKEVQEQSASEVPSSEEVDRRSVYVGNVDYGSTPEELQAHFKECGTINRVTILCDKFTGHPKGFAYIEFATEEGANNAVILNESLFRGRNLKVSIKRTNVPGISTTDRGRGRGFPRGIGFRGRGGLRGGFRGRGYHGFRGRGRMTPY | soluble |
| MLFKTIFYQKLQKKVTTLFNLETERVIREIENLNKNNPKVIFQAPEGLKLKVEKEIEKIKQYFKQKNINIEIYLWGNTCFGACDLIDNHVKNLNVDLIIHYGHEKLSYANPEIKTLFIPAYHIFNKDEEEKILNDIKNFIEKHKSGGKKVAIATTIQYKKLLKDFNPSIILGCRGEVKEGDVILFVGTGRFHPLMIAYKYQKEVFIYNPLSKCFDKISEEEINKFIKKRILAISKLLLNKPKKVGVVLSTKKGQCRKRVFDEIIKLLEENDVNYLPILVDNISPDILFYDVDCYIIVACPRIVLDDYILYKKPIYTPEEFKLFLKNSFKYKFDEIKEDDFLEHHHHHH | soluble |
| MSIHSASPIIRRKSRKIWVGNVPVGGDAPIAVQSMTNTETCDVAATVAQIRRLEDAGADIVRVSVPDMDAAEAFGKIKQQVNVPLVADIHFDYRIALRVAELGVDCLRINPGNIGREDRVKAVVDAARERNIPIRIGVNAGSLEKDLQKKYGEPTPEALLESAMRHVDHLDKLDFQNFKVSVKASDVFMAVAAYRLLARQIEQPLHLGITEAGGLRSGTVKSAVGLGMLLAEGIGDTIRISLAADPVEEIKVGFDILKSLHLRSRGINFIACPSCSRQNFDVVKTMNELEGRLEDLLVPMDVAVIGCVVNGPGEAKEAHVGLTGGTPNLVYIDGKPSQKLTNDNLVDELERLIRQKAAEKAEADASLIARG | not soluble |
| MGSDKIHHHHHHMKKEQIIQGPCTIKVLEGEARILGIEIQKNDLLTIPSDKTYTLVYDENTRLETDCKKLLDNLNLRWDEIVEEIINTVGVVLLLGNVDSGKTYLTNLFTNLATSYLKIIDADVGQSTLFLPTFIAELKPMRKTLNLEELGYDTLEFFGDITPSTNPRLHVQKILRLYETTPKERLTVIDTDGWTVGLNSMLHKFELIYTIDPDYIIVFDQKIKDSLPENYRNKAILLKSVNLHKSRSERKANRIAKYERYFKEAKNIKTLSENLLGKQISNILYCAWGEYIQLSDEEPCTDYYIPLNLLKGALLGIIENKKVIGAALLDDLKENEITILSRVNKFTGLVLGYISLNDKFEERRIRFRKCKS | not soluble |
| MFCSFFHEKKKNILRLNIRCQRLREHDNTAKIELFKSMRRRRSSTKASRKTTMGGAAELEDEWIPSETMSGAGWKARGDRKPKDKRVPFNRPTPYQIYEALPFVRRYFMYWMKHTFDKEKLFINTFQPLKHKPYYGVPCGGIGCGAIGRDFRGGFCKFSLRPGLVEHKVDVVAADQFILSVRENDRCIYQKVLSAADVQRPSGQLSTWDFKFPKKNVHYRGLFPRSWTTFRVPELELTVVIRQVSPVLPHNYEDTTYPVCLFLIDVENGGSASREYEISVAFTFRNGTGNRRWEREAECSGVKFETEEEGLKPTTTAQEKISGVSLYHTISSMPCTYGLATTHREHTTTTVCERFDPSRNGAALWNHLKQTGDVPSCEEECLINAREMAVAVCNRFTLPPNSTKTHDYALSWDMPKVHFGSVARSYHRRYTRFFEASEAGSAADSLCVRALRLKDKWESEIEAWQSPILNHKKLPDWYKSAIFNELYFITDGGTVWFEFDENWAEHETHLSHYTKDKMKEIGRFGYLESWEYRMVNTYDVHFYASFALAELWPELEITIQSEFTDQVYHSIEKPTRFHMEGDWANVKTASRVPHDLGNPADEPWIATNAYVMHDTGKWKDLNMKYVLTSWRDYVVLSNEHEDFLFHTWPAVRMIMLEALENWDQDGDGMIENFGKADQTYDAWQMEGVSAYCGSLWLASLRVAIEMAGLMKDDETQQLFRNTLEKAKKVFIDTLWTGTYFRFCERSRSRETVMADQLCGYWFLQSVSPELADELLPNHMVRSALDTIYRLNVCKFGNGRMGAVNGMKPSGVVDREYIQADEMWTGVTYAVASLLIQQGEVEKAFHTASGSYLTCFEETGLQYQTPEALYESKFYRAIGYMRPLSIWAMQWSLKKHCGMNTSEEKLPNLVKNEKVVPESEAAIQVQKQRILGDTSEDGSSLGYVSDYHDERSIPKIATLR | not soluble |
| MSLVTVDQKPNLIRHLHDLSGVWQTDITYIQLTNHRWVYLATVLDPEKRKVLGYKIGDTMTAELATSALQMALDKHRKPLIIHSDMGSQYTSAEFNIKCQNYGLKHSYSLKGHPYDNGRMEAFHSILKREEVYLKAYQTLTEVQAAIGWYINFYNRNRISNVAEGHHHHHH | not soluble |
| MGSSHHHHHHSSGLVPRGGSHMSAASSIFDFEVLDADHKPYNLVQHKGSPLLIYNVASKCGYTKGGYETATTLYNKYKSQGFTVLAFPCNQFGGQEPGNEEEIKEFVCTKFKAEFPIMAKINVNGENAHPLYEYMKKTKPGILKTKAIKWNFTSFLIDRDGVPVERFSPGASVKDIEKKLIPLLESTQSA | soluble |
| MSASVSDPYEQMPAAPTDDDLEDKPEADKKALLNQVFKSLKRAQDLFYHDYAQPPPMPEENDSLIRSMKRKHEYGNVIKKVEEMKVRRENEMLALPTSQPMHGTGSVIASAGTPLAITDGSGKLVNQQQGSAKSGTLLPLVPLGNSSKGEDNTTRSLLPSKAPMMMKPKWHAPWKLYRVASGHTGWVRAVDVEPGNQWFASGGADRIIKIWDLASGQLKLSLTGHISSVRAVKVSPRHPFLFSGGEDKQVKCWDLEYNKVIRHYHGHLSAVQALSVHPSLDVLVTCARDSTARVWDMRTKAQVHCFAGHTNTVADVVCQSVDPQVITASHDATVRLWDLAAGRSMCTLTHHKKSVRALTIHPRLNMFASASPDNIKQWKLPKGEFMQNLSGHNAIINTLSSNDDGVVVSGADNGSLCFWDWRSGFCFQKIQTKPQPGSIESEAGIYASCFDKTGLRLITAEADKTIKMYKEDDEATEESHPIVWRPEIVKKKAY | not soluble |
| MGSDKIHHHHHHMSASSNRTIPVFQLYGETHQWPTPDLLHCESIAERSRLHDWHIRPHRHADLVHVLHIAHGDVNLTFEEGAQRLTGPLLIVVPAMTVHAFRFSRDVDGHIVTLAMPLARHIADTLHPQGQILARAAFYPLADQPERAPIATLVDQLDAEYRHPADGRDALLEALLNSLLVLASRRATRRQARPASRQHERGEAHLARFQQLIEAHYHQQPSIPEFAERLGISSAHLSAVCQRLAGRSAQQLLHERVLLEAKRHLTYTNMTIGQVAERLGFKEPAYFTRFFKRHVACSPKEFRQRQA | not soluble |
| MAIQLSKGQRIDLTKTNPGLTKAVIGLGWDTNKYSGGHDFDLDASAFLVDAHDNCVNDLDFVFYNNLEHPSGGVIHTGDNRTGEGDGDDEQIIVDFSKIPAHIEKIGITVTIHDAEARSQNFGQVSNAFVRVVDEETQNELLRFDLGEDFSIETAVVVCELYRHGGEWKFNAIGSGFSGGLAALCRNYGLQV | not soluble |
| PPCDSIVVAYYFCGEPIPYETLVRGRAVTLGQFKELLTKKGSYRYYFKKVSDEFDCGVVFEEVREDEAILPVFEEKIIGKVEKVD | soluble |
| MAKKGPKRHLKRLAAPVRWELPRKIHKFTVRPLPGAHPMSESLPLLLIVRDILKYADNAREAKKIIKMGKVLVDGRVRKEEKLPVGLMDVVSLPDANENYRVLFDRKGRIKLKPTENPDVKLCKIKNKTVIKGGHIQLNLHDGRNIVIKVSDPTKAEEDVYKTGDTLLISIPEQEIKAHIPFEVGKLAYITGGKHVGDFAKIVEIERRGIYPDIVTLENMDGEKFKTVKDYVFVVGDEEPIIKLLEHHHHHH | soluble |
